The source of these data is doi:10.1101/2020.05.06.071340.

For orientation: Kd means the free concentration of one partner at which half of the binding sites on the other are occupied at equilibrium, for simple one-to-one binding. A low value points to higher affinity.

Data set [1] deals with T1, TOC1-CCT (Arabidopsis, UniProt Q9LKL2 533-575).
T1 chain: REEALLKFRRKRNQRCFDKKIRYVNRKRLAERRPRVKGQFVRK
As to the kind of experiment: EMSA. (In general: Mobility shift assays separate free from complexed probe on a gel.)

Data set [2] concerns the target T1, TOC1-CCT. Nature of the data set: ITC. (In general: ITC needs no label: the signal is the heat of the interaction.)
The next data set addresses T2, CCT (NMR construct) (Arabidopsis, UniProt Q9LKL2 533-590).
T2 sequence: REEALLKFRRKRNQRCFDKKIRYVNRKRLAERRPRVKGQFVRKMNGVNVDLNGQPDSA
As to the kind of experiment: NMR.

A further data set has as its target T3, CCTN (Arabidopsis, UniProt Q9LKL2 533-565).
T3 chain: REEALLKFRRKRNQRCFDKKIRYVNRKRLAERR
Nature of the data set: NMR.

With AAAUAAAUGGAGGGGAAAAAUAAAU (ssRNA) [G-rich RNA probe], the results for the Kd in the data set with TOC1-CCT [1] and in the data set with TOC1-CCT [2] were 110 ± 6 nM and 124 ± 8 nM, respectively.

With UGGAGGGGA (ssRNA) [NMR RNA], the binding result with CCT (NMR construct) and with CCTN was “binds” in each case.
